# According to patent US20220380471A1 (US Dept. of Health and Human Services, published 2022):
# T1: recombinant human B7H3-Fc protein (human, UniProt Q5ZPR3 29-466, limits assumed)
# T1 construct: 154 kDa non-reduced, 77 kDa reduced; also called hB7H3-Fc; not shown: Fc part
# T1 sequence (looked up): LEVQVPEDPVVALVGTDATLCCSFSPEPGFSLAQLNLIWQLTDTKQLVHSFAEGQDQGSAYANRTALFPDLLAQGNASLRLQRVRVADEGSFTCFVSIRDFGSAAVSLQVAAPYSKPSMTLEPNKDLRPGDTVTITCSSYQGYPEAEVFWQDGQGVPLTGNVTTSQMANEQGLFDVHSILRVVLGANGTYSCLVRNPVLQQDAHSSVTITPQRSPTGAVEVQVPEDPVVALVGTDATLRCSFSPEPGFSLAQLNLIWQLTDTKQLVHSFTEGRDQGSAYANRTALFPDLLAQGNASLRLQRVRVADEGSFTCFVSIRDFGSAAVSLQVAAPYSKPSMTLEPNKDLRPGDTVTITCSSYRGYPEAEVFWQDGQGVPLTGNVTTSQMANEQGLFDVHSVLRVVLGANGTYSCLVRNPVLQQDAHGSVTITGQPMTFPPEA
# T2: B7H3 (CD276) on MC38-CD276+ cells
# T2 construct: whole, on cells; MC38-CD276KO cells served as the negative control; also called MC38-B7H3+
# T2 sequence (Q5ZPR3 1-534, species assumed, looked up): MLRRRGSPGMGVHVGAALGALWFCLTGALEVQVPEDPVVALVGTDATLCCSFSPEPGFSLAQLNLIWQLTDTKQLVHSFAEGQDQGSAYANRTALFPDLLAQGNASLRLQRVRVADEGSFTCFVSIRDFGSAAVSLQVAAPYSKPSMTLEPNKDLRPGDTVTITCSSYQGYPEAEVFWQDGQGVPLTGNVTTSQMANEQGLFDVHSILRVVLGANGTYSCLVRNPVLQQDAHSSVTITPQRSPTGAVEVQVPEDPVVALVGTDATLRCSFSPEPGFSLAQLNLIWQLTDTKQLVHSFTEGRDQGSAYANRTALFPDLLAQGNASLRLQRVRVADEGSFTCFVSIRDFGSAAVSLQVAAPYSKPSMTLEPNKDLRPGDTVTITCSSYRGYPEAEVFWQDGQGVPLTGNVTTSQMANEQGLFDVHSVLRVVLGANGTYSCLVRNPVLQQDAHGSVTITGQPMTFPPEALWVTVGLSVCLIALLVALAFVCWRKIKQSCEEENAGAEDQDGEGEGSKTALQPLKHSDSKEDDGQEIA
# T3: hB7H3-His (human, UniProt Q5ZPR3 29-461, limits assumed)
# T3 construct: not shown: His tag
# T3 sequence (looked up): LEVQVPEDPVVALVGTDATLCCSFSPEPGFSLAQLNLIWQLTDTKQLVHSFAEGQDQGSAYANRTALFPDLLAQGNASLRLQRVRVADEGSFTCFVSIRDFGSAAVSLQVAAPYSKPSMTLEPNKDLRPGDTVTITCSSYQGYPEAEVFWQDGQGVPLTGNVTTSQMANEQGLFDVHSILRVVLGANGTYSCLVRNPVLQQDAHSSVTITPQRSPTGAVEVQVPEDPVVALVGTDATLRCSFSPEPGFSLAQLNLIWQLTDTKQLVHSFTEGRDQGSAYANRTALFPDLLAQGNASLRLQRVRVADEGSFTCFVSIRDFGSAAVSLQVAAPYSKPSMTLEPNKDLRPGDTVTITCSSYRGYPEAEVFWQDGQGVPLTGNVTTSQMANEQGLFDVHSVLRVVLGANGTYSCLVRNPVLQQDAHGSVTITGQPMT
# T4: human B7H3 (human, UniProt Q5ZPR3 29-466, limits assumed)
# T4 construct: also called human B7H3 protein
# T4 sequence (looked up): T1 sequence (looked up)
# T5: B7H3 peptide 10 (human)
# T5 peptide: QRVRVADEGSFTCFVSIR
# T6: B7H3 peptide 15 (human)
# T6 peptide: LRPGDTVTITCSSYQGYP
# B1: RWB12 (VHH)
# VHH: QVQLVESGGGSVQVGGSLRLSCAASGFTYNSYSVGWFRQAPGKEREGVAAINSGGSSTYYAASVKGRFTISRDNAKNTVYLQMNSLKPEDTAMYYCAARSPSPLTFQTRTLREDSYNYWGQGTQVTVSS
# notes: Camel VHH; tag not described; also called camel antibody RWB12
# B2: RWG4 (VHH)
# VHH: QVQLVQSGGGLVQPGGSLRLSCAASGFTFSVYWFYWVRQAPRQGLEWVSTIASNGSTYYSDSVKGRFTISRDNAKNTVYLQMNSLKPEDTAVYYCVSDPDYYSDYERAYKFWAQGTQVTVSS
# notes: Camel VHH; tag not described; also called camel antibody RWG4
# B3: RWG8 (VHH)
# VHH: DVQLVESGGGLVQPGGSLRLSCAASGFTFSRYWMGWFRQAPGKGVEWVSTINSGGGSTYYADSVKGRFTISRDNAKNTLYLQLNNLKTEDTAMYYCAKEQWRTGSRGQGTQVTVSS
# notes: Camel VHH; tag not described; also called camel antibody RWG8
# B4: RWC4 (VHH)
# VHH: EVQLVESGGGSVQAGGSLRLSCVASEDSTSAMCMGWFRQAPGKEREGVACINPTGEVTWYGDSVKGRFTISRDTVKKIVYLQMNSLKPEDTAMYYCAARVTYGGDWSTDTDYEYWGQGTQVTVSS
# notes: Camel VHH; tag not described; also called camel antibody RWC4
# Biological target: IgG control
# Experiment: phage ELISA
# Method in brief: (§1)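 For 3 rounds, recombinant B7H3-Fc protein served as the panning target for camel VHH phage drawn from eight individual camels' libraries. Each entry gives the ELISA signal for binding of selected phage to an immobilised antigen, either human or other-species B7H3 or a control protein, measured by phage ELISA.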
row,ELISA signal,Binder
1,0.164,B1
2,0.103,B2
3,0.101,B3
4,0.0777,B4

# Biological target: T1, recombinant human B7H3-Fc protein
# Experiment: phage ELISA
# Method in brief: as §1
row,ELISA signal,Binder
1,2.48,B1
2,2.13,B2
3,2.52,B3
4,2.66,B4

# Biological target: T2, B7H3 (CD276) on MC38-CD276+ cells
# Experiment: flow cytometry on MC38-CD276+ cells, VHH at 0.5 ug/ml
row,Positive rates [%],Binder
1,0.23,B1
2,1.25,B2
3,0.1,B3
4,14.4,B4

# Biological target: T3, hB7H3-His
# Experiment: ELISA; row B7H3-his; well 1 of 3
# Method in brief: (§2)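 Camel VHH nanobodies were isolated by phage panning on recombinant B7H3-Fc. After purification, their binding to immobilised B7H3 fusion proteins and non-B7H3 recombinant proteins was read out by ELISA and recorded as signal.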
row,ELISA reading (name not given),Binder
1,0.0603,B1
2,0.0693,B3
3,0.114,B4

# Biological target: T3, hB7H3-His
# Experiment: ELISA, purified VHH
# Method in brief: as §2
row,ELISA signal,Binder
1,0.686,B1
2,2.55,B2
3,1.04,B3
4,2.44,B4

# Biological target: T2, B7H3 (CD276) on MC38-CD276+ cells
# Experiment: flow cytometry on MC38-CD276+ cells, VHH at 10 ug/ml
row,Positive rates [%],Binder
1,4.16,B1
2,85.8,B2
3,4.68,B3
4,98.3,B4

# Biological target: T1, recombinant human B7H3-Fc protein
# Experiment: ELISA; row B7H3-Fc; well 3 of 3
# Method in brief: as §2
row,ELISA reading (name not given),Binder
1,0.952,B1
2,1.87,B3
3,1.95,B4

# Biological target: T4, human B7H3
# Experiment: ELISA; row Human; well 1 of 3
# Method in brief: as §2
row,ELISA reading (name not given),Binder
1,0.181,B1
2,0.136,B3
3,0.976,B4

# Biological target: T2, B7H3 (CD276) on MC38-CD276+ cells
# Experiment: flow cytometry on MC38-CD276+ cells, VHH at 2 ug/ml
row,Positive rates [%],Binder
1,0.18,B1
2,23.4,B2
3,0.31,B3
4,84.7,B4

# Biological target: T5, B7H3 peptide 10
# Experiment: peptide ELISA (OD450), 18-mer peptides of human B7H3
# Description: (§3) FIGS. 21A-21C: G8 cross-reacts with mouse B7H3 and kills mouse cancer cells. (FIG. 21A) Binding activity of anti-B7H3 nanobodies to mouse antigen detected by flow cytometry. […] (FIG. 21C). […] A total of 48 peptides from the human B7H3 protein were designed and synthesized. Each peptide consisted of 18 amino acids and overlapped with adjacent peptides by 9 amino acids. ELISA technology was used to test binding ability of antibody to each peptide. Number indicates the OD₄₅₀ value. […] The peptide sequences are shown below the table. C4 and B12 may have a conformational epitope that couldn't be predicted by a linearized peptide library.
# (§4) A total of 48 peptides from the human B7H3 protein were designed and synthesized. Each peptide consisted of 18 amino acids and overlapped with adjacent peptides by 9 amino acids. ELISA technology was used to test binding ability of the antibodies to each peptide (FIG. 21C). […] C4 and B12 may have a conformational epitope that couldn't be predicted by a linearized peptide library.
row,binding result,Binder
1,no binding,B1
2,binds,B3
3,no binding,B4

# Biological target: T6, B7H3 peptide 15
# Experiment: as above
# Description: as §3, §4
row,binding result,Binder
1,no binding,B1
2,binds,B3
3,no binding,B4

# Biological target: T4, human B7H3
# Experiment: ELISA; row Human; well 2 of 3
# Method in brief: as §2
row,ELISA reading (name not given),Binder
1,0.21,B1
2,0.147,B3
3,0.979,B4
